From paper PMC4843017, “Molecular requirements for the inter-subunit interaction and kinetochore recruitment of SKAP and Astrin” (Nature Communications, 2016)

Columns and labels:
[1] = target: T1, taxol-stabilized microtubules (α-/β-tubulin) (bovine, UniProt P81947 1-451; Q6B856 1-445); assay: co-sedimentation; Kd determination: 0-10 μM taxol-stabilized microtubules (tubulin dimer), 1 μM BSA, 1 μM protein of interest; 25 mM Hepes pH 7.5, 150 mM NaCl, 1 mM MgCl2, 1 mM EGTA, 2 mM DTE; 10 min room temperature; 350,000 g, 25 °C; gel densitometry, quadratic fit; apparent Kd; conditions: both partners purified
T1 construct: α-tubulin, named α-1B tubulin in the cross-linking analysis; β-tubulin, named β-2B tubulin in the cross-linking analysis; Polymer of α/β-tubulin dimers; Bought tubulin is likely a mixture of isotypes; In the polymerization assay (functional rows) the same tubulin was used unpolymerized; also called MTs; α-1B and β-2B tubulin; source: bought: Cytoskeleton, Inc; polymerized according to …
T1 sequence (P81947 whole entry, chain 1 of 2): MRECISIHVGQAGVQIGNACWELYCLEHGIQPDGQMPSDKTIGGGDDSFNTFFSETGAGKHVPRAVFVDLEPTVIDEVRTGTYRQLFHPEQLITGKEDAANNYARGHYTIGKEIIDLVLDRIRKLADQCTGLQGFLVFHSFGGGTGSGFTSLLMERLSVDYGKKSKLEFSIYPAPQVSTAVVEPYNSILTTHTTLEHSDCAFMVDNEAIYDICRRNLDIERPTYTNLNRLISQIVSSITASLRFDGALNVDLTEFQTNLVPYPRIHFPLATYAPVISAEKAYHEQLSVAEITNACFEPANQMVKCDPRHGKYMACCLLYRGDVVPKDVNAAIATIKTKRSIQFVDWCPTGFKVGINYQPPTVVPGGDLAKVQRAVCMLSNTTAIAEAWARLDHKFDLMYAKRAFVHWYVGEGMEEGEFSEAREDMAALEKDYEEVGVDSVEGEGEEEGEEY
T1 sequence (Q6B856 whole entry, chain 2 of 2): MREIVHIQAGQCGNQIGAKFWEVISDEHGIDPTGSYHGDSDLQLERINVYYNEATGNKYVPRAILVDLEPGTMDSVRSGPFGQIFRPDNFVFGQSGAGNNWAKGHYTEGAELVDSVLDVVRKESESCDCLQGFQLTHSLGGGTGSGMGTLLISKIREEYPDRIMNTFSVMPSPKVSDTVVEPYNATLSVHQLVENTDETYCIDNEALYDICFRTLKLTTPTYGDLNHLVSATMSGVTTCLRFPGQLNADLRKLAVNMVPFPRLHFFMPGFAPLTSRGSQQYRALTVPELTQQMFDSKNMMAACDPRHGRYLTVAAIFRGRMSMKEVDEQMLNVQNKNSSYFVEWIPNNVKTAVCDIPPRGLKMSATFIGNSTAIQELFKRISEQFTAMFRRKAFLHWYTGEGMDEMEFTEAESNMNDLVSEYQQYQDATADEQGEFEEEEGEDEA

[2] = target: the molecule itself; assay: AUC + cross-linking; sedimentation velocity, 42,000 r.p.m., 20 °C, 20 mM Hepes pH 7.5, 300 mM NaCl, 10% glycerol, 2 mM DTE; cross-linking conditions not told (Supplementary Fig. 3)

B1: SKAP^159–225 (domain or fragment, human, UniProt Q9Y448 159-225, looked up)
chain: VRKGYKPLSKQKSEEELKDKNQLLEAVNKQLHQKLTETQGELKDLTQKVELLEKFRDNCLAILESKG
notes: Small kinetochore-associated protein (SKAP); source: E. coli OverExpress C41 (DE3), purified (GSTrap FF, HiTrap Q FF, Superdex 200); not shown: GST, N-terminal, cleaved
**Q.** How did the Kd [1] turn out when B1 was run?
**A.** ~2.5 µM

B2: SKAP^135–225 2A mutant (K161A, K164A) (domain or fragment, human, UniProt Q9Y448 135-225, looked up)
chain: VTKITKLRRENGQMKATDTATRRNVRAGYAPLSKQKSEEELKDKNQLLEAVNKQLHQKLTETQGELKDLTQKVELLEKFRDNCLAILESKG
notes: Small kinetochore-associated protein (SKAP); source: E. coli OverExpress C41 (DE3), purified (GSTrap FF, HiTrap Q FF, Superdex 200)
**Q.** For B2, which “fold reduction of microtubule-binding affinity against wild type” value [1] is on record?
**A.** ~4 fold

B3: SKAP^135–225 4A mutant (K140A, K149A, K161A, K164A) (domain or fragment, human, UniProt Q9Y448 135-225, looked up)
chain: VTKITALRRENGQMAATDTATRRNVRAGYAPLSKQKSEEELKDKNQLLEAVNKQLHQKLTETQGELKDLTQKVELLEKFRDNCLAILESKG
notes: as for B2
**Q.** For B3, which “fold reduction of microtubule-binding affinity against wild type” value [1] is on record?
**A.** ~31 fold

B4: SKAP^135–225 (domain or fragment, human, UniProt Q9Y448 135-225, looked up)
chain: VTKITKLRRENGQMKATDTATRRNVRKGYKPLSKQKSEEELKDKNQLLEAVNKQLHQKLTETQGELKDLTQKVELLEKFRDNCLAILESKG
notes: Small kinetochore-associated protein (SKAP); Behaved as a trimer in AUC and cross-linking; also called WT; source: E. coli OverExpress C41 (DE3), purified (GSTrap FF, HiTrap Q FF, Superdex 200)
**Q.** B4 was tested. Which “stoichiometry N” value [2] did it give?
**A.** 3

**Q.** What about the Kd [1] of the same binder?
**A.** ~0.58 µM

B5: SKAP^103–225 (domain or fragment, human, UniProt Q9Y448 103-225, looked up)
chain: TQTRATSKSLLPVRSKEVDVSKQLHSGGPENDVTKITKLRRENGQMKATDTATRRNVRKGYKPLSKQKSEEELKDKNQLLEAVNKQLHQKLTETQGELKDLTQKVELLEKFRDNCLAILESKG
notes: Small kinetochore-associated protein (SKAP)
**Q.** Does B5 bind [1]?
**A.** binds

B6: SKAP^159–316:Astrin^482–850 complex (complex, human)
chain 1: VRKGYKPLSKQKSEEELKDKNQLLEAVNKQLHQKLTETQGELKDLTQKVELLEKFRDNCLAILESKGLDPALGSETLASRQESTTDHMDSMLLLETLQEELKLFNETAKKQMEELQALKVKLEMKEERVRFLEQQTLCNNQVNDLTTALKEMEQLLEM
chain 2: NKLQHLKESHEMGQALQQARNVMQSWVLISKELISLLHLSLLHLEEDKTTVSQESRRAETLVCCCFDLLKKLRAKLQSLKAEREEARHREEMALRGKDAAEIVLEAFCAHASQRISQLEQDLASMREFRGLLKDAQTQLVGLHAKQEELVQQTVSLTSTLQQDWRSMQLDYTTWTALLSRSRQLTEKLTVKSQQALQERDVAIEEKQEVSRVLEQVSAQLEECKGQTEQLELENSRLATDLRAQLQILANMDSQLKELQSQHTHCAQDLAMKDELLCQLTQSNEEQAAQWQKEEMALKHMQAELQQQQAVLAKEVRDLKETLEFADQENQVAHLELGQVECQLKTTLEVLRERSLQCENLKDTVENLTA
notes: Small kinetochore-associated protein (SKAP); Stoichiometry of the complex was not determined (AUC thwarted by limited solubility); also called SKAP:Astrin complex; source: Tnao38 insect cells (baculovirus), co-expressed, purified (HisTrap FF, Superose 6)
**Q.** How did the Kd [1] turn out when B6 was run?
**A.** ~1.6 µM

B7: SKAP^159–316 (expressed alone in E. coli) (domain or fragment, human, UniProt Q9Y448 159-316, looked up)
chain: VRKGYKPLSKQKSEEELKDKNQLLEAVNKQLHQKLTETQGELKDLTQKVELLEKFRDNCLAILESKGLDPALGSETLASRQESTTDHMDSMLLLETLQEELKLFNETAKKQMEELQALKVKLEMKEERVRFLEQQTLCNNQVNDLTTALKEMEQLLEM
notes: as for B1
**Q.** Does B7 bind [1]?
**A.** binds
